{"source": "paper PMC2755649", "about": "(Nature cell biology, 2009)", "key": {"[1]": {"biological_target": "T1, Recombinant InlC.K173A with a C-terminal 6xHis tag (Listeria monocytogenes, UniProt P71451 35-297, K173A)", "T1 sequence (looked up)": "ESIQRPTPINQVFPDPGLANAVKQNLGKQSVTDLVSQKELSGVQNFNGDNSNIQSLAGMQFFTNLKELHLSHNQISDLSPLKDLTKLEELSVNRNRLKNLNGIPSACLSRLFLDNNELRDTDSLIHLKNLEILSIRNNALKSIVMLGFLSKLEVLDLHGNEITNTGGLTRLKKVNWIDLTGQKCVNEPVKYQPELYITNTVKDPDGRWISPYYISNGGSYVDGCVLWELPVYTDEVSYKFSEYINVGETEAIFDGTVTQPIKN", "test": "SPR"}, "[2]": {"biological_target": "T2, Recombinant wild-type InlC with a C-terminal 6xHis tag (Listeria monocytogenes, UniProt P71451 35-297)", "T2 sequence (looked up)": "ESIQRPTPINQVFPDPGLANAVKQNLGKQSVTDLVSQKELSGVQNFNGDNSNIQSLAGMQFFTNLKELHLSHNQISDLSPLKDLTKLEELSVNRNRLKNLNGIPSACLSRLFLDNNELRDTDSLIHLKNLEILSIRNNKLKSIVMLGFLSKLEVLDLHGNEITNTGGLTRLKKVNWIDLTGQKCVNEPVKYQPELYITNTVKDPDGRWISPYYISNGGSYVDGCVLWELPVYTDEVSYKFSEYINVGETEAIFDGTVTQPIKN", "test": "SPR"}}}
{"binder": "SH36 protein of Tuba linked to the biosensor chip (domain or fragment, human, UniProt Q6XZF7 1513-1577, looked up) EGNQVYFAVYTFKARNPNELSVSANQKLKILEFKDVTGNTEWWLAEVNGKKGYVPSNYIRKTEYT", "values": [{"measurement": "Kd", "setting": "[1]", "value": "58 ± 12.3", "unit": "µM"}, {"measurement": "Kd", "setting": "[2]", "value": "9 ± 3.5", "unit": "µM"}]}
